Measured values from patent US20250376536A1 (Bristol-Myers Squibb, published 2025).

Experiments:
human CD40 protein = molecular target: T1, human CD40 protein (human, UniProt P25942 21-193); test: SPR
T1 construct: Protein used in SPR
Method: (§1) CD40.9H3×FAP.LP62 and an analog of RO7300490 (see SEQ ID NOs: 39-42) binding to human and cynomolgus (cyno) CD40 and FAP was evaluated by surface plasmon resonance (SPR) using human and cyno CD40 and FAP proteins. […] The rates of association and dissociation of CD40.9H3×FAP.LP62 and the analog of RO7300490 to human CD40 and FAP are summarized in Table 2.

human FAP protein = molecular target: T2, human FAP protein (human, UniProt Q12884 26-760); test: SPR
T2 sequence: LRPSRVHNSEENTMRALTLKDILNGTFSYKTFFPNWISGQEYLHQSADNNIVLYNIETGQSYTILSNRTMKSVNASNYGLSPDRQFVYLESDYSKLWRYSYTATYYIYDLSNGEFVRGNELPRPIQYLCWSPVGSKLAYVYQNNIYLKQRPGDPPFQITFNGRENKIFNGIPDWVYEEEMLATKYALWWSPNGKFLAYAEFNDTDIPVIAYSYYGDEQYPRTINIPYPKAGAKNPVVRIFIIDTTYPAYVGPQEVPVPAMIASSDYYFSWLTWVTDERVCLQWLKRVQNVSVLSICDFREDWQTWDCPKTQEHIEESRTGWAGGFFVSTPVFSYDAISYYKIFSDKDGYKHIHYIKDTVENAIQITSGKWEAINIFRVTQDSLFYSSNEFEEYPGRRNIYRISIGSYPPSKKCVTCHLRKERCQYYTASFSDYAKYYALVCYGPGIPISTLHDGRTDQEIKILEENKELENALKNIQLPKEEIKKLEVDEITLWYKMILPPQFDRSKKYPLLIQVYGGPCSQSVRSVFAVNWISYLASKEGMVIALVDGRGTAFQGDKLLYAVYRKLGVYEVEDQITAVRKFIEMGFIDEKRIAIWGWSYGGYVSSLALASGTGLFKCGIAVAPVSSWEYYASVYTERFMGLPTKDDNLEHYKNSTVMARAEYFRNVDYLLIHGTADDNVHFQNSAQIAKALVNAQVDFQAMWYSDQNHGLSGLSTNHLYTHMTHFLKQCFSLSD
Method: as §1

soluble FAP [1] = molecular target: T3, soluble FAP (human, UniProt Q12884 26-760, limits assumed); test: cell-based or functional assay
T3 sequence: T2 sequence

FcγRI (CD64) = molecular target: T4, FcγRI (CD64) (UniProt P12314 16-288, limits assumed); test: SPR, Biacore S200, antibody captured on Protein A chip, FcγR as analyte
T4 construct: also called FcγR1 (CD64); FcγR1
Method: Binding of CD40.9H3×FAP.LP62 and the analog of RO7300490 to various Fc gamma receptors (FcγR1 (CD64), FcγRIIIA (CD16a), FcγRIIIB (CD16b), FcγRIIA (CD32a), FcγRIIB (CD32b)) was determined in an analyte/capture assay in vitro. Briefly, an SPR assay was performed using a Biacore S200 with a Biacore Series S Protein A chip (Cytiva). All antibodies were prepared at 4.0 μg/ml in 1×HBS-EP+ running buffer (Cytiva) and captured onto flow cells 2, 3, and 4 through a 60 second contact time at 10 μl/min. An analyte series of the FcγRs (BMS In-House Produced) were prepared at 10,000 nM in 1×HBS-EP+ with eight, three-fold dilutions. Kinetic measurements were conducted with a 120 second association followed by a 120 second dissociation at 30 μl/min. Surface regeneration was preformed by 60 second contact time of 50 mM Glycine pH 1.5 solution (Cytiva) at 30 μl/min. Data was processed in Biacore Insight Evaluation Version 5 (Cytiva). Sensorgrams were double referenced and globally fit to a 1:1 Langmuir model were applicable. Where 1:1 model was not sufficient to describe the interaction (fast-on and fast-off rates), steady state equilibrium fitting was used to determine the equilibrium constant.

human FAP on cells = molecular target: T5, human FAP on cells (human, UniProt Q12884 1-760); test: cell-based or functional assay
T5 sequence: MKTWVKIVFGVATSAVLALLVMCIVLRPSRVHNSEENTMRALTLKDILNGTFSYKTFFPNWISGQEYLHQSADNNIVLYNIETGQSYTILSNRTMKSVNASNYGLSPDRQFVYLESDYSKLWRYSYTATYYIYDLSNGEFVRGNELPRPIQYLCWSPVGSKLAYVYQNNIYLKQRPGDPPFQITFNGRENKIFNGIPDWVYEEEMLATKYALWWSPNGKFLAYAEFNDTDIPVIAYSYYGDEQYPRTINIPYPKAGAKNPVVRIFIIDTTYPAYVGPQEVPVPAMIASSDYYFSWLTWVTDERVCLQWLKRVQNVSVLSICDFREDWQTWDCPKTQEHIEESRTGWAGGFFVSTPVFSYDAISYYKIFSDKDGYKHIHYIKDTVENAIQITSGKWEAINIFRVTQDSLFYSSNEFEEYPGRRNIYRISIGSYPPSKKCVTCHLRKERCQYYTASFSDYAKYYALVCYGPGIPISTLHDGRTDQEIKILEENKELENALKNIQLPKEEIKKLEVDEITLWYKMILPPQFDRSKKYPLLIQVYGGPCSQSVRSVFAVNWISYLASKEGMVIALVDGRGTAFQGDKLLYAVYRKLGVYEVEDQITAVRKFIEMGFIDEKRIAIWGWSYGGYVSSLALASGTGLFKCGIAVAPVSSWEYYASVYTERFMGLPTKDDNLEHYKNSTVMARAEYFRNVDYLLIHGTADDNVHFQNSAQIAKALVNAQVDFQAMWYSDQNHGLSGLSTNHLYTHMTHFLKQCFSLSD

soluble FAP [2] = molecular target: T3, soluble FAP; test: cell-based or functional assay; remark: listed apart in the source
mouse CD40 on cells [3] = molecular target: T6, mouse CD40 on cells (mouse, UniProt P27512 20-289); test: cell-based or functional assay
T6 sequence (looked up): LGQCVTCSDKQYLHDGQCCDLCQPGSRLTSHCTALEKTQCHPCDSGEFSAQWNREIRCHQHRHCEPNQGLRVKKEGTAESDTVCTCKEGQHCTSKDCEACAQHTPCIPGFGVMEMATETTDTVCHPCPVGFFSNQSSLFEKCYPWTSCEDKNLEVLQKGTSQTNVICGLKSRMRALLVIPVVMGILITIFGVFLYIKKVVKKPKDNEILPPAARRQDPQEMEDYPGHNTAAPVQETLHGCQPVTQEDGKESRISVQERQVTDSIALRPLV

mouse CD40 protein = molecular target: T7, mouse CD40 protein (mouse, UniProt P27512 20-193, limits assumed); test: SPR
T7 sequence (looked up): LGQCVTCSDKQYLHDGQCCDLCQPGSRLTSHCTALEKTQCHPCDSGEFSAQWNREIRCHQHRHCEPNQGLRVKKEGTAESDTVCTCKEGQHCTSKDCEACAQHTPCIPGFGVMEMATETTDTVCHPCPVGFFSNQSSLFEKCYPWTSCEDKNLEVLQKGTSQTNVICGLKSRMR

mouse FAP protein = molecular target: T8, mouse FAP protein (mouse, UniProt P97321 26-761); test: SPR
T8 sequence (looked up): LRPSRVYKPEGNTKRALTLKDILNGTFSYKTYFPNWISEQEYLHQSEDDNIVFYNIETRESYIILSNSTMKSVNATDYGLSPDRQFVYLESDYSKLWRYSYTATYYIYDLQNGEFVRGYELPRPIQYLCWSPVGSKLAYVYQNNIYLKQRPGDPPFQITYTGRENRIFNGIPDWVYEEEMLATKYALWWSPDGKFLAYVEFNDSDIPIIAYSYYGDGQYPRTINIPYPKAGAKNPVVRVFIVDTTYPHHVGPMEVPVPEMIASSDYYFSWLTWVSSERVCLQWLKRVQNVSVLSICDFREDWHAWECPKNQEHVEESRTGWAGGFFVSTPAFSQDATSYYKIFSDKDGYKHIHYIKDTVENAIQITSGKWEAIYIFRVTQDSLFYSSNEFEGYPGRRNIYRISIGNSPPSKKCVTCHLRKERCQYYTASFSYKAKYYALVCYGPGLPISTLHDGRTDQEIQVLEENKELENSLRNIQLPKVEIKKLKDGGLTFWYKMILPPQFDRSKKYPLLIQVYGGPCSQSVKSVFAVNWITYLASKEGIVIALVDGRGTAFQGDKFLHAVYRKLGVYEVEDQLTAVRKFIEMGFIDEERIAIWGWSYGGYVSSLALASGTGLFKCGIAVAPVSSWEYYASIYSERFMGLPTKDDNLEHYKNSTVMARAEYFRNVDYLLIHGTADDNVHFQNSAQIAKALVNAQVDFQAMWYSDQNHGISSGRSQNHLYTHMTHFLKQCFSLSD

mouse CD40 on cells [4] = molecular target: T6, mouse CD40 on cells; test: binding to mouse CD40-positive B cells
mouse CD40 on cells [5] = molecular target: T6, mouse CD40 on cells; test: binding to mouse CD40-positive macrophages
mouse FAP on HEK cells = molecular target: T9, mouse FAP on HEK cells (mouse, UniProt P97321 1-761); test: binding to mouse FAP-positive HEK cells
T9 construct: whole, on cells; also called Mouse FAP-positive HEK cells; mouse FAP-expressing HEK cells
T9 sequence (looked up): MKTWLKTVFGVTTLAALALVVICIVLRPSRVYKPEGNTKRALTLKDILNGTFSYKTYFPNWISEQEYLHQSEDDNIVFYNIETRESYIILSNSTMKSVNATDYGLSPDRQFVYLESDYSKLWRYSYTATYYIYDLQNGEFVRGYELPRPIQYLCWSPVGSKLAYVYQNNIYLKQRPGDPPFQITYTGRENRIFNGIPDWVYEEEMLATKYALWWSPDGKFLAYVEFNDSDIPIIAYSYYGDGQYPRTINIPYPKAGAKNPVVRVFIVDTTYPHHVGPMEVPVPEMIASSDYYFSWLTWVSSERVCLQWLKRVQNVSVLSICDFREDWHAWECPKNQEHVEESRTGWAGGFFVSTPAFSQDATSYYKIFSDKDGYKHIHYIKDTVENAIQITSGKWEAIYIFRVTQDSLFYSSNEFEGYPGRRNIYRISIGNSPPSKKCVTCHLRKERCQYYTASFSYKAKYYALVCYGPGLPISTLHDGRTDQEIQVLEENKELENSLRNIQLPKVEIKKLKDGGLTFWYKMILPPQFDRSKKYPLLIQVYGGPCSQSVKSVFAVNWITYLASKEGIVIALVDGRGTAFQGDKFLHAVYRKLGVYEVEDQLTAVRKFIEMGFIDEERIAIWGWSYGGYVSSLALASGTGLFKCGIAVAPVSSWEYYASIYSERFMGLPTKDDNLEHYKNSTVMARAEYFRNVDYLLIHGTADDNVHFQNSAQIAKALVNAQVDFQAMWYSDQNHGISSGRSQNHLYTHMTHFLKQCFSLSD

T1 sequence (P25942 21-193 limits assumed): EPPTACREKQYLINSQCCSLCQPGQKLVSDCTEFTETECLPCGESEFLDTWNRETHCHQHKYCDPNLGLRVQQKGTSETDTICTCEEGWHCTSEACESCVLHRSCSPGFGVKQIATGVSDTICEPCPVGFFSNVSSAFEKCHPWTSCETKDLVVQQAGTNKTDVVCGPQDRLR
T4 sequence (P12314 16-288 limits assumed): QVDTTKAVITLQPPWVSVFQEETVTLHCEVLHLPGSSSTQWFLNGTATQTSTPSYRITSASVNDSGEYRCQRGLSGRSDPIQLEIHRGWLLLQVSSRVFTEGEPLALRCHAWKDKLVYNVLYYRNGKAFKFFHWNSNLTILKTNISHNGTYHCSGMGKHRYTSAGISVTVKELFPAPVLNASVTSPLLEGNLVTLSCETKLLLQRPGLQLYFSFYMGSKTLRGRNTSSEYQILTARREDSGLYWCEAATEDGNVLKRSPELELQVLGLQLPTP

B1: analog of RO7300490 (bispecific antibody, human IgG1, kappa, L234A L235A)
heavy 1: not shown
heavy 2: QVQLVQSGAEVKKPGASVKVSCKASGYSFTGYYIHWVRQAPGQSLEWMGRVIPNAGGTSYNQKFKGRVTLTVDKSISTAYMELSRLRSDDTAVYYCAREGIYWWGQGTTVTVSSASTKGPSVFPLAPSSKSTSGGTAALGCLVEDYFPEPVTVSWNSGALTSGVHTFPAVLQSSGLYSLSSVVTVPSSSLGTQTYICNVNHKPSNTKVDEKVEPKSCDKTHTCPPCPAPEAAGGPSVFLFPPKPKDTLMISRTPEVTCVVVDVSHEDPEVKFNWYVDGVEVHNAKTKPREEQYNSTYRVVSVLTVLHQDWLNGKEYKCKVSNKALGAPIEKTISKAKGQPREPQVCTLPPSRDELTKNQVSLSCAVKGFYPSDIAVEWESNGQPENNYKTTPPVLDSDGSFFLVSKLTVDKSRWQQGNVFSCSVMHEALHNHYTQKSLSLSPG
light 1: DIVMTQTPLSLSVTPGQPASISCRSSQSLVHSNGNTFLHWYLQKPGQSPQLLIYTVSNRFSGVPDRFSGSGSGTDFTLKISRVEAEDVGVYFCSQTTHVPWTFGGGTKVEIKRTVAAPSVFIFPPSDRKLKSGTASVVCLLNNFYPREAKVQWKVDNALQSGNSQESVTEQDSKDSTYSLSSTLTLSKADYEKHKVYACEVTHQGLSSPVTKSFNRGEC
light 2: QVQLVQSGAEVKKPGASVKVSCKASGYTLTDYNMDWVRQAPGQGLEWIGDIYPNTGGTIYNQKFKGRVTMTIDTSTSTVYMELSSLRSEDTAVYYCTRFRGIHYAMDYWGQGTTVTVSSASVAAPSVFIFPPSDEQLKSGTASVVCLLNNFYPREAKVQWKVDNALQSGNSQESVTEQDSKDSTYSLSSTLTLSKADYEKHKVYACEVTHQGLSSPVTKSFNRGEC
notes: Human IgG1 Fc with L234A, L235A, P329G; also called RO7300490 analog
Human CD40 protein
  Kd: 4.9 nM
  koff: 0.00555 s⁻¹
  kon: 1.13e+06 M⁻¹ s⁻¹
Human FAP protein
  Kd: 0.265 nM
  koff: 4.83e-05 s⁻¹
  kon: 182000 M⁻¹ s⁻¹
Soluble FAP [1]
  fold reduction in potency of IL12p40 secretion with 120 ng/mL soluble FAP: 14.2 fold
  fold reduction in potency of IL12p40 secretion with 480 ng/mL soluble FAP: 70.9 fold
FcγRI (CD64)
  Kd: 2550 nM
Human FAP on cells
  IL12p40 release, human DC + HFF1 co-culture, EC50, soluble FAP 0 ng/mL: 0.09 nM
Soluble FAP [2]
  IL12p40 release, human DC + HFF1 co-culture, EC50, soluble FAP 120 ng/mL: 1.14 nM
  IL12p40 release, human DC + HFF1 co-culture, EC50, soluble FAP 480 ng/mL: 516 nM

B2: mCD40×FAP.LP62 (2+1 anti-mouse CD40×FAP bispecific antibody) (bispecific antibody)
chain: EVQLLESGGGLVQPGGSLRLSCAASGFTFSSRGMSWVRQAPGKCLEWVSFISSSGTYVYYADSVKGRFTISRDNSKNTLYLQMNSLRAEDTAVYYCARDLPRTGVYFGMDVWGQGTTVTVSSGGGGSGGGGSGGGGSGGGGSDIQMTQSPSSLSASVGDRVTITCRASQSIFNYLNWYQQKPGKAPKLLIYGASTLQSGVPSRFSGSGSGTDFTLTISSLQPEDFATYYCQESYSTPYTFGCGTKVEIK
Mouse CD40 on cells [3]
  CCL22 secretion, murine BMDM + MC38-FAP co-culture, EC50: 1.02 nM
  IL12p40 secretion, murine BMDM + MC38-FAP co-culture, EC50: 1.43 nM
Mouse CD40 protein
  Kd: 45.8 nM
Mouse FAP protein
  Kd: 3.4 nM
Mouse CD40 on cells [4]
  EC50: 12.1 nM
Mouse CD40 on cells [5]
  EC50: 7.3 nM
Mouse FAP on HEK cells
  EC50: 3.17 nM
